# Data as given in PMC3104014 (The Biochemical journal, 2010).
# Biological target: the molecule itself
# Test: SEC-MALS
protein,measurement,value
"rat RNF4 RING domain (residues 124-194) (domain or fragment, UniProt O88846 124-194, looked up) GTTGLRPSGTVSCPICMDGYSEIVQNGRLIVSTECGHVFCSQCLRDSLKNANTCPTCRKKINHKRYHPIYI",stoichiometry N,2
